Substrate in series [1]: O=C(O)C(=O)CCO
Description: OHB decarboxylase / pyruvate decarboxylase kinetics, Zm-Pdc W392L. The class given is biochemical, Zymomonas mobilis. The following applies: other: 37° C., pH 7, coupled to E. coli YqhD/NADPH. The protocol: (§1) OHB decarboxylase activity was assayed by coupling the decarboxylase activity to the NADPH-dependent reduction of the released 3-hydroxypropanal by purified aldehyde reductase, YqhD, from E. coli. The decarboxylation of pyruvate was coupled to the NADH-dependent reduction of acetaldehyde catalysed by yeast alcohol dehydrogenase. Branched-chain alpha-ketoacid decarboxylase activity was measured on 4-methyl-2-oxovaleric acid by coupling to the NADH-dependent reduction of 3-methylbutanal catalysed by horse liver alcohol dehydrogenase. […] Reactions were started by adding 20 mM 2-oxo-4-hydroxybutyrate (OHB), 10 mM 4-methyl-2-oxovaleric acid (MOV), or 5 mM pyruvate.
(§2) Site-directed mutagenesis of the L. lactis kdcA and the Z. mobilis Pdc genes was carried out using the oligonucleotide pairs listed in Table 9 and the pET28-Ll-kdcA and pET28-Zm-Pdc plasmids, respectively, as the template.
(§3) Mutant enzymes were expressed, purified and tested for OHB decarboxylase, pyruvate decarboxylase and MOV decarboxylase activity as described in Example 4.

Substrate in series [2]: CC(=O)C(=O)O
Nature of the series: OHB decarboxylase / pyruvate decarboxylase kinetics, Zm-Pdc W392Q. Type of series: biochemical, Zymomonas mobilis. The following applies: other: 37° C., pH 7, coupled to yeast alcohol dehydrogenase/NADH. The protocol: as §1, §2, §3

Substrate in series [3]: O=C(O)C(=O)CCO
Described as above. The class given is biochemical, Zymomonas mobilis. The following applies: other: 37° C., pH 7, coupled to E. coli YqhD/NADPH. The protocol: as §1, §2, §3

Substrate in series [4]: O=C(O)C(=O)CCO
Description: OHB decarboxylase / pyruvate decarboxylase kinetics, Zm-Pdc G413N. Type of series: biochemical, Zymomonas mobilis. The following applies: other: 37° C., pH 7, coupled to E. coli YqhD/NADPH. The protocol: as §1, §2, §3

Substrate in series [5]: O=C(O)C(=O)CCO
Description: OHB decarboxylase / branched-chain alpha-ketoacid decarboxylase kinetics, Ll-KdcA wild type. The class given is biochemical, Lactococcus lactis B1157-NIZO. The following applies: other: 37° C., pH 7, coupled to E. coli YqhD/NADPH.
Description: (§4) The branched-chain alpha-ketoacid decarboxylase encoding gene Ll-kdcA from L. lactis B1157-NIZO was codon-optimized for expression in E. coli. […] The resulting pET28-Ll-kdcA plasmid was shown by DNA sequencing to have the correct sequence.
(§5) The plasmids were used to transform E. coli BL21 (DE3) star cells and the enzymes carrying an N-terminal hexa-His tag were expressed and purified as described in Example 1. Decarboxylase activity on 2-oxo-4-hydroxybutyrate (OHB), pyruvate (Sigma), and 4-methyl-2-oxovaleric acid (Sigma) was quantified.
as §1

Substrate in series [6]: CC(C)CC(=O)C(=O)O
The description is as above. The following applies: other: 37° C., pH 7, coupled to horse liver alcohol dehydrogenase/NADH. The class given is biochemical, Lactococcus lactis B1157-NIZO.
Description: as §4, §5, §1

Substrate in series [7]: O=C(O)C(=O)CCO
Description: OHB decarboxylase / MOV decarboxylase kinetics, Ll-KdcA G402S. Type of series: biochemical, Lactococcus lactis. The following applies: other: 37° C., pH 7, coupled to E. coli YqhD/NADPH. How it is done: as §1, §2, §3

Substrate in series [8]: CC(C)CC(=O)C(=O)O
Described as above. The class given is biochemical, Lactococcus lactis. The following applies: other: 37° C., pH 7, coupled to horse liver alcohol dehydrogenase/NADH. How it is done:
as §1, §2, §3

Substrate in series [9]: O=C(O)C(=O)CCO
Nature of the series: OHB decarboxylase / MOV decarboxylase kinetics, Ll-KdcA V461I. Type of series: biochemical, Lactococcus lactis. The following applies: other: 37° C., pH 7, coupled to E. coli YqhD/NADPH. How it is done: as §1, §2, §3

Substrate in series [10]: CC(C)CC(=O)C(=O)O
The description is as above. Type of series: biochemical, Lactococcus lactis. The following applies: other: 37° C., pH 7, coupled to horse liver alcohol dehydrogenase/NADH. The protocol: as §1, §2, §3

B1: Zymomonas mobilis pyruvate decarboxylase Zm-Pdc variant W392L, SEQ ID No. 192 (Zymomonas mobilis subsp. mobilis ZM4 = ATCC 31821; W392L) (protein)
chain: MSYTVGTYLAERLVQIGLKHHFAVAGDYNLVLLDNLLLNKNMEQVYCCNELNCGFSAEGYARAKGAAAAVVTYSVGALSAFDAIGGAYAENLPVILISGAPNNNDHAAGHVLHHALGKTDYHYQLEMAKNITAAAEAIYTPEEAPAKIDHVIKTALREKKPVYLEIACNIASMPCAAPGPASALFNDEASDEASLNAAVEETLKFIANRDKVAVLVGSKLRAAGAEEAAVKFADALGGAVATMAAAKSFFPEENPHYIGTSWGEVSYPGVEKTMKEADAVIALAPVFNDYSTTGWTDIPDPKKLVLAEPRSVVVNGIRFPSVHLKDYLTRLAQKVSKKTGALDFFKSLNAGELKKAAPADPSAPLVNAEIARQVEALLTPNTTVIAETGDSLFNAQRMKLPNGARVEYEMQWGHIGWSVPAAFGYAVGAPERRNILMVGDGSFQLTAQEVAQMVRLKLPVIIFLINNYGYTIEVMIHDGPYNNIKNWDYAGLMEVFNGNGGYDSGAGKGLKAKTGGELAEAIKVALANTDGPTLIECFIGREDCTEELVKWGKRVAAANSRKPVNKLL
What is called Km is the concentration of substrate that gives half-maximal velocity. Regarding B1, the Km in series [1] is 3700 µM.

B2: Zymomonas mobilis pyruvate decarboxylase Zm-Pdc variant W392Q, SEQ ID No. 190 (Zymomonas mobilis subsp. mobilis ZM4 = ATCC 31821; W392Q) (protein)
chain: MSYTVGTYLAERLVQIGLKHHFAVAGDYNLVLLDNLLLNKNMEQVYCCNELNCGFSAEGYARAKGAAAAVVTYSVGALSAFDAIGGAYAENLPVILISGAPNNNDHAAGHVLHHALGKTDYHYQLEMAKNITAAAEAIYTPEEAPAKIDHVIKTALREKKPVYLEIACNIASMPCAAPGPASALFNDEASDEASLNAAVEETLKFIANRDKVAVLVGSKLRAAGAEEAAVKFADALGGAVATMAAAKSFFPEENPHYIGTSWGEVSYPGVEKTMKEADAVIALAPVFNDYSTTGWTDIPDPKKLVLAEPRSVVVNGIRFPSVHLKDYLTRLAQKVSKKTGALDFFKSLNAGELKKAAPADPSAPLVNAEIARQVEALLTPNTTVIAETGDSQFNAQRMKLPNGARVEYEMQWGHIGWSVPAAFGYAVGAPERRNILMVGDGSFQLTAQEVAQMVRLKLPVIIFLINNYGYTIEVMIHDGPYNNIKNWDYAGLMEVFNGNGGYDSGAGKGLKAKTGGELAEAIKVALANTDGPTLIECFIGREDCTEELVKWGKRVAAANSRKPVNKLL
B2: the Km in [2] stood at 9200 µM; in series [3], 2900 µM.

B3: Zymomonas mobilis pyruvate decarboxylase Zm-Pdc variant G413N, SEQ ID No. 194 (Zymomonas mobilis subsp. mobilis ZM4 = ATCC 31821; G413N) (protein)
chain: MSYTVGTYLAERLVQIGLKHHFAVAGDYNLVLLDNLLLNKNMEQVYCCNELNCGFSAEGYARAKGAAAAVVTYSVGALSAFDAIGGAYAENLPVILISGAPNNNDHAAGHVLHHALGKTDYHYQLEMAKNITAAAEAIYTPEEAPAKIDHVIKTALREKKPVYLEIACNIASMPCAAPGPASALFNDEASDEASLNAAVEETLKFIANRDKVAVLVGSKLRAAGAEEAAVKFADALGGAVATMAAAKSFFPEENPHYIGTSWGEVSYPGVEKTMKEADAVIALAPVFNDYSTTGWTDIPDPKKLVLAEPRSVVVNGIRFPSVHLKDYLTRLAQKVSKKTGALDFFKSLNAGELKKAAPADPSAPLVNAEIARQVEALLTPNTTVIAETGDSWFNAQRMKLPNGARVEYEMQWNHIGWSVPAAFGYAVGAPERRNILMVGDGSFQLTAQEVAQMVRLKLPVIIFLINNYGYTIEVMIHDGPYNNIKNWDYAGLMEVFNGNGGYDSGAGKGLKAKTGGELAEAIKVALANTDGPTLIECFIGREDCTEELVKWGKRVAAANSRKPVNKLL
Turning to B3, the Km in series [4] stood at 1400 µM.

B4: Lactococcus lactis branched-chain alpha-ketoacid decarboxylase Ll-KdcA, wild type, SEQ ID No. 130 (Lactococcus lactis) (protein)
chain: MYTVGDYLLDRLHELGIEEIFGVPGDYNLQFLDQIISREDMKWIGNANELNASYMADGYARTKKAAAFLTTFGVGELSAINGLAGSYAENLPVVEIVGSPTSKVQNDGKFVHHTLADGDFKHFMKMHEPVTAARTLLTAENATYEIDRVLSQLLKERKPVYINLPVDVAAAKAEKPALSLEKESSTTNTTEQVILSKIEESLKNAQKPVVIAGHEVISFGLEKTVTQFVSETKLPITTLNFGKSAVDESLPSFLGIYNGKLSEISLKNFVESADFILMLGVKLTDSSTGAFTHHLDENKMISLNIDEGIIFNKVVEDFDFRAVVSSLSELKGIEYEGQYIDKQYEEFIPSSAPLSQDRLWQAVESLTQSNETIVAEQGTSFFGASTIFLKSNSRFIGQPLWGSIGYTFPAALGSQIADKESRHLLFIGDGSLQLTVQELGLSIREKLNPICFIINNDGYTVEREIHGPTQSYNDIPMWNYSKLPETFGATEDRVVSKIVRTENEFVSVMKEAQADVNRMYWIELVLEKEDAPKLLKKMGKLFAEQNK
B4: the Michaelis constant (Km) turned out to be 4000 µM in series [5] and 150 µM in [6].

B5: Lactococcus lactis branched chain 2-oxoacid decarboxylase Ll-KdcA variant G402S, SEQ ID No. 196 (Lactococcus lactis; G402S) (protein)
chain: MYTVGDYLLDRLHELGIEEIFGVPGDYNLQFLDQIISREDMKWIGNANELNASYMADGYARTKKAAAFLTTFGVGELSAINGLAGSYAENLPVVEIVGSPTSKVQNDGKFVHHTLADGDFKHFMKMHEPVTAARTLLTAENATYEIDRVLSQLLKERKPVYINLPVDVAAAKAEKPALSLEKESSTTNTTEQVILSKIEESLKNAQKPVVIAGHEVISFGLEKTVTQFVSETKLPITTLNFGKSAVDESLPSFLGIYNGKLSEISLKNFVESADFILMLGVKLTDSSTGAFTHHLDENKMISLNIDEGIIFNKVVEDFDFRAVVSSLSELKGIEYEGQYIDKQYEEFIPSSAPLSQDRLWQAVESLTQSNETIVAEQGTSFFGASTIFLKSNSRFIGQPLWSSIGYTFPAALGSQIADKESRHLLFIGDGSLQLTVQELGLSIREKLNPICFIINNDGYTVEREIHGPTQSYNDIPMWNYSKLPETFGATEDRVVSKIVRTENEFVSVMKEAQADVNRMYWIELVLEKEDAPKLLKKMGKLFAEQNK
On to B5, for which the Km in series [7] and in [8] was 1500 µM throughout.

B6: Lactococcus lactis branched chain 2-oxoacid decarboxylase Ll-KdcA variant V461I, SEQ ID No. 198 (Lactococcus lactis; V461I) (protein)
chain: MYTVGDYLLDRLHELGIEEIFGVPGDYNLQFLDQIISREDMKWIGNANELNASYMADGYARTKKAAAFLTTFGVGELSAINGLAGSYAENLPVVEIVGSPTSKVQNDGKFVHHTLADGDFKHFMKMHEPVTAARTLLTAENATYEIDRVLSQLLKERKPVYINLPVDVAAAKAEKPALSLEKESSTTNTTEQVILSKIEESLKNAQKPVVIAGHEVISFGLEKTVTQFVSETKLPITTLNFGKSAVDESLPSFLGIYNGKLSEISLKNFVESADFILMLGVKLTDSSTGAFTHHLDENKMISLNIDEGIIFNKVVEDFDFRAVVSSLSELKGIEYEGQYIDKQYEEFIPSSAPLSQDRLWQAVESLTQSNETIVAEQGTSFFGASTIFLKSNSRFIGQPLWGSIGYTFPAALGSQIADKESRHLLFIGDGSLQLTVQELGLSIREKLNPICFIINNDGYTIEREIHGPTQSYNDIPMWNYSKLPETFGATEDRVVSKIVRTENEFVSVMKEAQADVNRMYWIELVLEKEDAPKLLKKMGKLFAEQNK
Regarding B6, the values for the Km in series [9] and in series [10] were 2800 µM and 150 µM, respectively.
